T1: Chs4p (S. cerevisiae, UniProt P34226 1-696)
T1 sequence (looked up): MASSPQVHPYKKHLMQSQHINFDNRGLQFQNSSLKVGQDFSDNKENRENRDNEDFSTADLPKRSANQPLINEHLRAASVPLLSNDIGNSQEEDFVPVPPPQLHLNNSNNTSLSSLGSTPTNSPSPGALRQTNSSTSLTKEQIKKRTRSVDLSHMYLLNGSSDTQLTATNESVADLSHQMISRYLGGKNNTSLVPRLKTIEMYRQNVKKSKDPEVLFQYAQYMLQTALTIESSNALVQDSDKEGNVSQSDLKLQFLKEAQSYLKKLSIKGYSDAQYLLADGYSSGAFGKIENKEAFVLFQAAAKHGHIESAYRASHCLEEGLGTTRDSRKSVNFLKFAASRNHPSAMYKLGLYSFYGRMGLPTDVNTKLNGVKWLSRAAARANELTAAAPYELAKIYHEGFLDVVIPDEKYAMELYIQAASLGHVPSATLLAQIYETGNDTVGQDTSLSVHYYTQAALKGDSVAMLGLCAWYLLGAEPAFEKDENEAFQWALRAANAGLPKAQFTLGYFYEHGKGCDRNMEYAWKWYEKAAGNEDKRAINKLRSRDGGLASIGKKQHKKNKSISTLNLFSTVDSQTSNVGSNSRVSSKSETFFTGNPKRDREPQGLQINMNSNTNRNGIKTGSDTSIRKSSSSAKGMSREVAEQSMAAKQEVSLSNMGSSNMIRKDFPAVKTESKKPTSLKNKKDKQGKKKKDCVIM

T2: Chs4p^C693S (S. cerevisiae, UniProt P34226 1-696, C693S)
T2 sequence (looked up): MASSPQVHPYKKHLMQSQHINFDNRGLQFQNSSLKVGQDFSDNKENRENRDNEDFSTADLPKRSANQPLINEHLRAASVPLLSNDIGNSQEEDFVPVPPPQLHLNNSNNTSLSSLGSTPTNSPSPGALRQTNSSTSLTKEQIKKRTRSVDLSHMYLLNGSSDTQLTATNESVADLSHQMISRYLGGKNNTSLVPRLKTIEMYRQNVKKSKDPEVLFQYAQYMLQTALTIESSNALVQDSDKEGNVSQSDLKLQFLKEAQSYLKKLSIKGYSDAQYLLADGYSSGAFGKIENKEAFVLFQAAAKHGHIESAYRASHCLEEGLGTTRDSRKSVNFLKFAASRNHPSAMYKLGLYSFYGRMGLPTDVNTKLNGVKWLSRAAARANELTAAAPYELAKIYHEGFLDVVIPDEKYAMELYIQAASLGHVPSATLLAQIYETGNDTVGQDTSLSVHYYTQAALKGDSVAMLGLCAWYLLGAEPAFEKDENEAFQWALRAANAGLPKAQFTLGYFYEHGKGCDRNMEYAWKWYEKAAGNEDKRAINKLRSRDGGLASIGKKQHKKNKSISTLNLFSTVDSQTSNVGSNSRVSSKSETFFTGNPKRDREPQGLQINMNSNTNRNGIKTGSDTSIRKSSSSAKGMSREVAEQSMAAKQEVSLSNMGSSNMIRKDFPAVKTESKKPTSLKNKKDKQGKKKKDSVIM


Legend:
Test in all cases: two-hybrid
Chs4p (S. cerevisiae) = Chs4p (S. cerevisiae) (UniProt P34226)
[1] = molecular target: Chs4p^C693S (S. cerevisiae) (UniProt P34226)
Cdc10p (S. cerevisiae) = Cdc10p (S. cerevisiae) (UniProt P25342)
Chs4p = molecular target: T1, Chs4p
two-hybrid = molecular target: the molecule itself
Chs4p^C693S = molecular target: T2, Chs4p^C693S

Chain of Bni4pE (P53858 whole entry, the tested form may be a part): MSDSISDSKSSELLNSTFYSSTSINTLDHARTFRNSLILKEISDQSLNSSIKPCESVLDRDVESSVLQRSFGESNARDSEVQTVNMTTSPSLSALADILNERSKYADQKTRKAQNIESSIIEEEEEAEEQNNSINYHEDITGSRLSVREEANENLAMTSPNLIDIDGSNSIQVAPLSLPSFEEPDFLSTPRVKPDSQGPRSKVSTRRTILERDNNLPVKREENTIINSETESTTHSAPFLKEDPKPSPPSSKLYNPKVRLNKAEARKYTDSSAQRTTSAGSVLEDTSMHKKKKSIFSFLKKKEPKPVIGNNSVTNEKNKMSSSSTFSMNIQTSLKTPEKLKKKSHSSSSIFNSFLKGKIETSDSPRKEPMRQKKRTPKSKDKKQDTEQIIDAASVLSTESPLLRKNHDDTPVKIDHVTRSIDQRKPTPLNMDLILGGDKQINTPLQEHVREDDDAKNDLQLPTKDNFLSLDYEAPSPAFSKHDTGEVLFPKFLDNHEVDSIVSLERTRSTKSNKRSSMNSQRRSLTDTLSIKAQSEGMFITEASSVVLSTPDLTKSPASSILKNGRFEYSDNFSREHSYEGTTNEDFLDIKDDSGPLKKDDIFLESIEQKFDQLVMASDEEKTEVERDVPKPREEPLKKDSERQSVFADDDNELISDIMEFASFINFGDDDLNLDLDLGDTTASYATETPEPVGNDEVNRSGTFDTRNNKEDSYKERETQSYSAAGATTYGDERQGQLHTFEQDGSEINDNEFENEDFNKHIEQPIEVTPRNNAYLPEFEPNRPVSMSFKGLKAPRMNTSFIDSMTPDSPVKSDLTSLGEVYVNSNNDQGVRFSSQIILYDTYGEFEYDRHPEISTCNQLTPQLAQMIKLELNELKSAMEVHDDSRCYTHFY
Chain of Cdc10p (S. cerevisiae) (P25342 whole entry): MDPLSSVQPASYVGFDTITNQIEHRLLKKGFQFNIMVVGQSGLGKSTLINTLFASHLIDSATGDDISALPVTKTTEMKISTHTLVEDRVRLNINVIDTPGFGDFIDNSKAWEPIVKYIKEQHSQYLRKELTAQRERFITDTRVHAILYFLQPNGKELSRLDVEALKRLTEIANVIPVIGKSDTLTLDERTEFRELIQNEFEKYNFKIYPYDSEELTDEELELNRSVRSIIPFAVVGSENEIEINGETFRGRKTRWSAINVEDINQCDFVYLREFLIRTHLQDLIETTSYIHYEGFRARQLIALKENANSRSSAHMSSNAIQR

units of β-galactosidase activity (units of β-galactosidase activity) (Chs4p (S. cerevisiae)) | units of β-galactosidase activity (units of β-galactosidase activity) [1] | units of β-galactosidase activity (units of β-galactosidase activity) (Cdc10p (S. cerevisiae)) | units of β-galactosidase activity (Chs4p) | units of β-galactosidase activity (Chs4p^C693S) | Molecule | units of β-galactosidase activity (two-hybrid)
238 | 2220 | 1010 |  |  | Bni4pE (from UniProt P53858 65-730) (domain or fragment) | 
 |  |  | 617 units of β-galactosidase activity | 568 units of β-galactosidase activity | Chs3p^Δ700 (domain or fragment, S. cerevisiae, UniProt P29465 1-700, looked up) MTGLNGDDPDDYYLNLNQDEESLLRSRHSVGSGAPHRQGSLVRPERSRLNNPDNPHFYYAQKTQEQMNHLDVLPSSTGVNPNATRRSGSLRSKGSVRSKFSGRETDSYLLQDMNTTDKKASVKISDEGVAEDEFDKDGDVDNFEESSTQPINKSIKPLRKETNDTLSFWQMYCYFITFWAPAPILAFCGMPKKERQMAWREKVALISVILYIGAIVAFLTFGFTKTVCSSSKLRLKNNEVSTEFVVINGKAYELDTSSRSGIQDVEVDSDTLYGPWSDAGKDASFLFQNVNGNCHNLITPKSNSSIPHDDDNNLAWYFPCKLKNQDGSSKPNFTVENYAGWNCHTSKEDRDAFYGLKSKADVYFTWDGIKNSSRNLIVYNGDVLDLDLLDWLEKDDVDYPVVFDDLKTSNLQGYDLSLVLSNGHERKIARCLSEIIKVGEVDSKTVGCIASDVVLYVSLVFILSVVIIKFIIACYFRWTVARKQGAYIVDNKTMDKHTNDIEDWSNNIQTKAPLKEVDPHLRPKKYSKKSLGHKRASTFDLLKKHSSKMFQFNESVIDLDTSMSSSLQSSGSYRGMTTMTTQNAWKLSNENKAVHSRNPSTLLPTSSMFWNKATSSPVPGSSLIQSLDSTIIHPDIVQQPPLDFMPYGFPLIHTICFVTCYSEDEEGLRTTLDSLSTTDYPNSHKLLMVVCDGLIKGSGN | 123 units of β-galactosidase activity

— PMC2139831 (The Journal of Cell Biology, 1997)
